Test results from patent US6492117, “Zinc finger polypeptides capable of binding DNA quadruplexes” (Gendaq Limited).

Biological target: glutathione-S-transferase (UniProt P08515 P08515:1-218)
Test: EMSA; GST alone control
Conditions: tags: GST (pGEX-3X, Amersham-Pharmacia); label: 5'-32P; G4, antiparallel intramolecular
Method: Binding reactions are performed in a final volume of 10 µl, using 10 fmol of labelled oligonucleotide and various amounts of purified Gq1* in binding buffer: 20 mM Tris-HCl pH 7.5, 1 mM EDTA, 1 mM DTT, 6% glycerol, 100 µg/ml BSA, 1 µg/ml calf thymus DNA, 50 µM ZnCl_2 and KCl to 150 mM. Binding reactions are carried out at room temperature for 1 hour. The samples are loaded on a 8% polyacrylamide (acrylamide:bisacrylamide=33:1) non-denaturing gel. The buffer in the gel and for electrophoresis is 0.5 X TB buffer (Sambrook, J., Fritsch, E. F., & Maniatis, T. (1989) in Molecular Cloning, A Laboratory Manual, Cold Spring Harbor Laboratory Press, Cold Spring Harbor.). Electrophoresis is performed at 15 V/cm, for 2 hours, at 4° C. […] The bands are quantified using Imagequant software. The fraction of DNA that is bound and free is determined after normalization by summing the total number of counts in each lane (Senear D F, Brenowitz M (1991) J Biol Chem Jul 25;266(21):13661–71). To minimise any error due to perturbation of the equilibrium under electrophoretic conditions, the fraction of free DNA is measured at various protein concentrations rather than measuring the amount of complex formed (Cann J R (1989) J Biol Chem Oct 15;264(29):17032–40; Garner M M, Revzin A (1981) Nucleic Acids Res Jul 10;9(13):3047–60). […]

Sequence of glutathione-S-transferase (P08515 whole entry, one chain of several): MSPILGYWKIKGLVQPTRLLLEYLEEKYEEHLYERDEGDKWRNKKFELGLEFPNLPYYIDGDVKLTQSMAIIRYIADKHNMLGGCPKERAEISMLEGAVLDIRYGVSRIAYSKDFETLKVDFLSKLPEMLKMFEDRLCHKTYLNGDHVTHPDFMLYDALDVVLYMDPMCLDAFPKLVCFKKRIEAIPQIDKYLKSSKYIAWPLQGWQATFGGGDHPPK

GGTTAGGGTTAGGGTTAGGGTTAGGGTTAG (structured_DNA) [Htelo]
binding result: no binding
